Patent US20230203142A1, “TREATMENT OF METABOLIC DISORDERS THROUGH THE TARGETING OF A NOVEL CIRCULATING HORMONE COMPLEX” (The President and Fellows of Harvard College, priority 2020, published 2023)

Columns and labels:
[1] = tested on: INS1 cells; experiment: Glucose-stimulated insulin secretion (GSIS), INS1 cells; assay type: cell-based, rat
Experimental: This finding was recapitulated in both primary human islets from multiple non-diabetic donors (FIG. 6B), as well as INS1 cells (FIG. 6C). Human islets from review board approved healthy donors were isolated using the Edmonton protocol and provided by the IsletCore and Clinical Islet Laboratory (University of Alberta, Canada). Donors with a BMI<25 and HbA1c<6.0% were used for experiments. Islets were hand-picked three times and cultured at 37° C. in RPMI media with 10% FBS and 1% Penicillin/Streptomycin overnight before use. For INS1 cells, cells were plated at 8000 cells/well in 96-well plates and incubated overnight prior to experimentation. Insulin secretion assay was performed as above using 200 μl/well for each treatment. Cells were lysed using 80 μl ultrapure water and flash freezing. For siRNA experiments, INS1 cells were allowed to reach confluency before transfection of siRNA (Horizon Discovery; L-090381-02-0005) using Lipofectamine 3000 (Thermo Fischer; L3000015) according to manufacturer protocol for 48 hours prior to assays.
As additional controls, it was explored whether lipid binding was required for FABP4 action. […] FABP4 inhibitor studies were performed using BMS-309403 (10 nM; Sigma #BM0015).
To further elucidate the role of purinergic receptors in this signaling process, a potent and selective P2Y1 inhibitor, MRS2179 (Baurand et al., 2001) was utilized. […]

[2] = target: T1, recombinant NDPK (Homo sapiens, UniProt P15531); experiment: Recombinant kinase activity assay, NDPK (ADP-Glo/Kinase-Glo); assay type: biochemical
T1 construct: purchased Acro Biosystems NM1-H5147
T1 sequence (P15531 whole entry): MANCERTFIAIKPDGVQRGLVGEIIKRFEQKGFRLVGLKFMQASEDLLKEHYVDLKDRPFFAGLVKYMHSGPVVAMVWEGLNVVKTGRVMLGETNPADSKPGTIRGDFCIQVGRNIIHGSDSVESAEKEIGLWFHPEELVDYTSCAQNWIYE
Experimental: (§1) An on-bead kinase assay was developed to measure the activity of endogenous NDPK and ADK pulled down from serum using a-Ab or c-Ab conjugated beads. Both NDPK and ADK are bi-directional kinases that will produce ATP or ADP depending on the substrates provided (FIGS. 4B-C). Kinase activity assays were performed in 384-well plates in reaction buffer (PBS with 0.1% BSA, 0.01% F-127, 5 mM MgCl2). Experiments with recombinant proteins were performed at final concentrations of 40 μg/ml for ADK and FABP4, and 20 ug/ml for NDPK, and a reaction volume of 10 μl. Antibodies were used at a final concentration of 80 ug/ml. Substrates were added in equimolar ratios depending on the kinase being assayed and the direction of the reaction in serial dose responses, with the highest concentration of 5 μM. Proteins and substrates were incubated for 1 hr at room temperature, and ADP and ATP production were monitored using ADP-Glo and Kinase-Glo kits, respectively, according the manufacturer instructions (V6930 and V6711 Promega, USA). Luminescence was quantified using a SpectraMax Paradigm plate reader 30 min after the addition of substrate. Consistent with the MS results, ADK activity, as measured by generation of ATP, was specifically observed in samples pulled down with a-Ab but not c-Ab (FIG. 5A). […] To test this possibility, the ATP and ADP generating activity of recombinant ADK was assessed in the presence of the proposed complex components.

[3] = tested on: INS1 cells
Experimental: Cells were pre-treated with P2Y1 activator (0.5 nM; MRS2365 Tocris #2157) during the pre-incubation period. Cells were stimulated with ATP (5 μM; Promega #V915A) or ADP (2.5 μM; Promega #V916A) acutely with the addition of LG and HG KRB during the serial stimulation. Cells were treated with 100 ng/ml recombinant human FABP4 (produced in-house), 200 ng/ml recombinant human ADK (Novus Biologicals, product number NBP1-44382 or R&D Systems, product number 8024-AK-025), or 100 ng/ml recombinant human NDPK-A (Acro Biosystems, product number NM1-H5147) where indicated, for the pre-incubation period, as well as during the glucose stimulation.
Briefly, INS1 cells were plated in imaging disks at 5000 cells/dish and cultured in standard media overnight. Cells were washed with PBS, and incubated in imaging buffer without glucose, with or without calcium containing Fura-2 AM (2 mM; ThermoFisher F1201) for 30 minutes at 37° C. Cells were washed twice with fresh PBS, and placed in lml imaging buffer. Calcium flux was evaluated with the addition of 20 mM glucose, 30 mM KCl, or 1 μM Thapsigargin. Extracellular calcium was added at 1.5 mM. Calcium flux measurements were performed using an epifluorescence system coupled to a Ti-S/L100 inverted microscope L100 with fluorescent light source (X-Cite 120LED System) equipped with Lambda DG-4 Plus for UV ratiometric probes. Excitations at 340 nm and 380 nm were used and an emission of 510 nm. Analysis was performed using ImageJ software. Calcium flux was measured from 50 cells per coverslip.

[4] = tested on: primary human islets; experiment: Glucose-stimulated insulin secretion (GSIS), human islets; assay type: cell-based
Experimental: Primary islet isolation from mice was performed as previously described (Batchuluun et al., 2018; Prentice et al., 2014) and GSIS was assessed following acute treatment with NDPK-ADK in the presence or absence of FABP4. Insulin secretion assays were performed as previously described (Prentice et al., 2014). For primary islets, 20 islets were hand-picked into 1.5 ml tubes, washed twice with Krebs Ringer Buffer (KRB) without glucose, and pre-incubated in 500 μl low glucose (LG; 2.8 mM) KRB for 1 hour at 37° C. KRB was then removed and 250 μl of fresh LG KRB added. Islets were incubated for 20 minutes at 37° C. Supernatant was collected and 250 μl high glucose (HG; 16.7 mM) KRB added. Islets were incubated for 20 minutes at 37° C. In conditions where KCl was used, HG KRB was collected, and 250 μl KC1 (16.7 mM glucose, 30 mM KCl) KRB added. Islets were incubated for 20 minutes at 37° C., and supernatant collected. Following the stimulation protocol, cells were lysed in 100 μl acid ethanol (70% ethanol, 1% HCl in water) and stored at 4° C. overnight. Samples were evaporated using a SpeedVac until dried, and resuspended in 60 μl ultrapure water. DNA was quantified by Nanodrop (ThermoFisher, USA). Insulin from supernatant was quantified using insulin HTRF (Insulin Ultrasensitive Assay kit 62IN2PEH; Cisbio, USA). […]

[5] = target: T2, recombinant ADK (Homo sapiens, UniProt P55263); experiment: Recombinant kinase activity assay, ADK (Kinase-Glo); assay type: biochemical
T2 construct: purchased Novus Biologicals or R&D Systems NBP1-44382 or 8024-AK-025
T2 sequence (P55263 whole entry): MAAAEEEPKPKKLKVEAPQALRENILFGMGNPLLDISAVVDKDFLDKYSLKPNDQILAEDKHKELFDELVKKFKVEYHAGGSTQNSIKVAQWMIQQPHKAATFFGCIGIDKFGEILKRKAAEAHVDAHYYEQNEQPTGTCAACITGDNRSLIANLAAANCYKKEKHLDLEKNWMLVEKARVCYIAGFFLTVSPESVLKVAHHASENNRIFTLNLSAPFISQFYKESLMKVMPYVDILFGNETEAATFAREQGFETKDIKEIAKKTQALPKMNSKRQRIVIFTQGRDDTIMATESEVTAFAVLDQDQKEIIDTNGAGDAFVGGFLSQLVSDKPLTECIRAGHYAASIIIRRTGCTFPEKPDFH
Experimental: as §1

B1: a-Ab: monoclonal antibody previously reported as CA33; heavy chain SEQ ID NO 446, light chain SEQ ID NO 447; binds FABP4 and NDPK (antibody, listed as Homo sapiens)
heavy: QSVEESGGRLVTPGTPLTLTCTVSGFSLSTYYMSWVRQAPGKGLEWIGIIYPSGSTYCASWAKGRFTISKASTTVDLKITSPTTEDTATYFCARPDNDGTSGYLSGFGLWGQGLVTVSSAKTTPPSVYPLAPGSAAQTNSMVTLGCLVKGYFPEPVTVTWNSGSLSSGVHTFPAVLQSDLYTLSSSVTVPSSTWPSETVTCNVAHPASSTKVDKKIVPRDC
light: DVVMTQTPASVSEPVGGTVTIKCGASEDISRYLVWYQQKPGQPPKRLIYKASTLASGVPSRFKGSGSGTDFTLTISDLECDDAATYYCQCTYGTYAGSFFYSFGGGTEVVVERTDAAPTVSIFPPSSEQLTSGGASVVCFLNNFYPKDINVKWKIDGSERQNGVLNSWTDQDSKDCTYSMSSTLTLTKDEYERHNSYTCEATHKTSTSPIVKSFNRNEC
[1]
  GSIS in the presence of the NDPK-ADK/FABP4 complex: rescued
[2]; in the presence of the complex components
  ADP producing capacity of NDPK: rescued
[2]; recombinant NDPK plus the added component
  activity of NDPK to generate ADP: no effect
[3]
  ER calcium efflux: rescue
[4]
  GSIS in response to the NDPK-ADK/FABP4 complex: rescued
[5]; added to the NDPK-ADK/FABP4 complex, compared to the complex alone
  ADK activity to produce ATP: no effect
[5]; recombinant ADK plus the added component
  ADK activity to generate ATP: no effect
